Results reported in the supplement of paper PMC10065799, “High-throughput profiling of sequence recognition by tyrosine kinases and SH2 domains using bacterial peptide display” (eLife, 2023).

How the values were obtained:
[1] = molecular target: Jak2 (UniProt O60674); experiment: phosphorylation enrichment, bacterial display (enrichment ratio); higher = better substrate or ligand; peptides without Tyr show the background
[2] = molecular target: FGFR3 (UniProt P22607); experiment: as above
[3] = tested on: c-Src; experiment: as above
[4] = tested on: AncSZ; experiment: as above
[5] = molecular target: EPHB1 (UniProt P54762); experiment: as above
[6] = molecular target: Fyn (UniProt P06241); experiment: as above
[7] = molecular target: EPHB2 (UniProt P29323); experiment: as above
[8] = tested on: Fer (mouse); experiment: as above
[9] = molecular target: MERTK (UniProt Q12866); experiment: as above
[10] = molecular target: FGFR1 (UniProt P11362); experiment: as above
[11] = molecular target: Hck (UniProt P08631); experiment: as above
[12] = molecular target: Fes (UniProt P07332); experiment: as above
[13] = tested on: c-Abl (mouse); experiment: as above
[14] = molecular target: Grb2 SH2 (UniProt P62993); experiment: SH2 binding enrichment of the phosphorylated peptide, bacterial display (enrichment ratio); higher = better substrate or ligand; peptides without Tyr show the background
[15] = molecular target: c-Src SH2; experiment: as above
[16] = molecular target: SHP2-C SH2; experiment: as above
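For SH2 binding enrichment of the phosphorylated peptide, bacterial display in this document: peptide library displayed on the E. coli surface as eCPX fusions, selected cells deep-sequenced, score is each peptide's frequency after selection divided by its frequency in the input.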
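For phosphorylation enrichment, bacterial display in this document: 11-residue human phosphosite peptides and single-mutation variants displayed on the E. coli surface, counted by deep sequencing, each peptide's frequency after selection divided by its frequency in the unselected input library; frequency after pTyr selection over input frequency; kinase dosed for 20-30% of maximal phosphorylation in three min.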

Sequence of EPHB1 (P54762 whole entry, looked up): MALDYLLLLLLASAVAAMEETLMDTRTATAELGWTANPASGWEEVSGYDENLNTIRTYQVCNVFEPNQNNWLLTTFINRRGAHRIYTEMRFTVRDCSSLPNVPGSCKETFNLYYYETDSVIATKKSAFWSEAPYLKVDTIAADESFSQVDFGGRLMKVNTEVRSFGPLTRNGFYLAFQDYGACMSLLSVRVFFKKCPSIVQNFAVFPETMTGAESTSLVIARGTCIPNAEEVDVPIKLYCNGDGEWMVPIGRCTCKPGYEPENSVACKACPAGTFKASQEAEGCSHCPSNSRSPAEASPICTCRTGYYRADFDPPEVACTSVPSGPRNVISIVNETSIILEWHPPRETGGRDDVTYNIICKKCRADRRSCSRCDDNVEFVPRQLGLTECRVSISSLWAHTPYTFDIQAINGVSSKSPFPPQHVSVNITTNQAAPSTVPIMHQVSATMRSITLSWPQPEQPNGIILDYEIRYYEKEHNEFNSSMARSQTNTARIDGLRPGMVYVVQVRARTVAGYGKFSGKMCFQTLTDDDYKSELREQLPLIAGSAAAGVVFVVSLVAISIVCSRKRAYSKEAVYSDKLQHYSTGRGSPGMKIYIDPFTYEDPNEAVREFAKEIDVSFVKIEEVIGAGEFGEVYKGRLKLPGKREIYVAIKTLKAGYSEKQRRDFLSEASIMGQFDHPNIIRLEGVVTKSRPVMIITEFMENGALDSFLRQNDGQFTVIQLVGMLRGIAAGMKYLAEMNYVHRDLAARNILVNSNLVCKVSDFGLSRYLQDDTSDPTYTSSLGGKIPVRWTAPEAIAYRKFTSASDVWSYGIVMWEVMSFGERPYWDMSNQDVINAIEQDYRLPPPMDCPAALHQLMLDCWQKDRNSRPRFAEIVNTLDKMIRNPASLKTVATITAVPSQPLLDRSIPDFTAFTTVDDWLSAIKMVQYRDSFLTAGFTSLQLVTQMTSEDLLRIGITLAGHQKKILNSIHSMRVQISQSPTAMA
Sequence of Fes (P07332 whole entry, looked up): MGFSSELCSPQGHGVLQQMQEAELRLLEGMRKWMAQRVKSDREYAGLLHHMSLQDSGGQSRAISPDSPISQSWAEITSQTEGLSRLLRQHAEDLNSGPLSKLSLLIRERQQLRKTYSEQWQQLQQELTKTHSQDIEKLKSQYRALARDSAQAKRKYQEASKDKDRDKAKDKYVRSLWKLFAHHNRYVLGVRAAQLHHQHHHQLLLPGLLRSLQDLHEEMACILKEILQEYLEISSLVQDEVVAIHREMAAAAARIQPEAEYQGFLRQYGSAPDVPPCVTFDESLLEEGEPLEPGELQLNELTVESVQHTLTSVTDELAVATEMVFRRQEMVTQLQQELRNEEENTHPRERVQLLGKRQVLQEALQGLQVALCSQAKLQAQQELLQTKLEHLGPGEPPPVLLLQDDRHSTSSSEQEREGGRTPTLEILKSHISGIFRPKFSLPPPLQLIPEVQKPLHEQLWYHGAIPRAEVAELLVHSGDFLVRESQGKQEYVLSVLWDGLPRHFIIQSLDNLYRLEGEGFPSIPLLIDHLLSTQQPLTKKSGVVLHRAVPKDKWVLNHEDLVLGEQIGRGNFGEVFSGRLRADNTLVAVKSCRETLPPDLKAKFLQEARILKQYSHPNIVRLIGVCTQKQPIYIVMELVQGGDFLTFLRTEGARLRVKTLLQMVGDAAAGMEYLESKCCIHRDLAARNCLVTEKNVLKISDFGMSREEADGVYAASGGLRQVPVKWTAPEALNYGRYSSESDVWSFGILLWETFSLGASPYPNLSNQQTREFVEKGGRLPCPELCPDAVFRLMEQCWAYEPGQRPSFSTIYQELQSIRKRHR
Sequence of Hck (P08631 whole entry, looked up): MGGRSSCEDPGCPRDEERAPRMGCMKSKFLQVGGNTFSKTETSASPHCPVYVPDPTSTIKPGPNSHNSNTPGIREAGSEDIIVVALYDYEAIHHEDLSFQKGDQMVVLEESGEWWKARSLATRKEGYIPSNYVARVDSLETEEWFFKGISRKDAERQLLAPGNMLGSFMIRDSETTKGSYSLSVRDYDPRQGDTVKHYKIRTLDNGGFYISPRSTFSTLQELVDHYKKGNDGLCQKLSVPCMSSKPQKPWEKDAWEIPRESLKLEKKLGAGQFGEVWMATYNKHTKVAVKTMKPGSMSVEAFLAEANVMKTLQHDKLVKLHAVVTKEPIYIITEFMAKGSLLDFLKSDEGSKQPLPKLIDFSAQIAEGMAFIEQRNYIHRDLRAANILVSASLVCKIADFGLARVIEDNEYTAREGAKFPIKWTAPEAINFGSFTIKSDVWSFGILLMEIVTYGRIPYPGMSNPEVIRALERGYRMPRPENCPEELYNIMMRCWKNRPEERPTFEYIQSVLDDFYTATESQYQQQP
Sequence of Jak2 (O60674 whole entry, looked up): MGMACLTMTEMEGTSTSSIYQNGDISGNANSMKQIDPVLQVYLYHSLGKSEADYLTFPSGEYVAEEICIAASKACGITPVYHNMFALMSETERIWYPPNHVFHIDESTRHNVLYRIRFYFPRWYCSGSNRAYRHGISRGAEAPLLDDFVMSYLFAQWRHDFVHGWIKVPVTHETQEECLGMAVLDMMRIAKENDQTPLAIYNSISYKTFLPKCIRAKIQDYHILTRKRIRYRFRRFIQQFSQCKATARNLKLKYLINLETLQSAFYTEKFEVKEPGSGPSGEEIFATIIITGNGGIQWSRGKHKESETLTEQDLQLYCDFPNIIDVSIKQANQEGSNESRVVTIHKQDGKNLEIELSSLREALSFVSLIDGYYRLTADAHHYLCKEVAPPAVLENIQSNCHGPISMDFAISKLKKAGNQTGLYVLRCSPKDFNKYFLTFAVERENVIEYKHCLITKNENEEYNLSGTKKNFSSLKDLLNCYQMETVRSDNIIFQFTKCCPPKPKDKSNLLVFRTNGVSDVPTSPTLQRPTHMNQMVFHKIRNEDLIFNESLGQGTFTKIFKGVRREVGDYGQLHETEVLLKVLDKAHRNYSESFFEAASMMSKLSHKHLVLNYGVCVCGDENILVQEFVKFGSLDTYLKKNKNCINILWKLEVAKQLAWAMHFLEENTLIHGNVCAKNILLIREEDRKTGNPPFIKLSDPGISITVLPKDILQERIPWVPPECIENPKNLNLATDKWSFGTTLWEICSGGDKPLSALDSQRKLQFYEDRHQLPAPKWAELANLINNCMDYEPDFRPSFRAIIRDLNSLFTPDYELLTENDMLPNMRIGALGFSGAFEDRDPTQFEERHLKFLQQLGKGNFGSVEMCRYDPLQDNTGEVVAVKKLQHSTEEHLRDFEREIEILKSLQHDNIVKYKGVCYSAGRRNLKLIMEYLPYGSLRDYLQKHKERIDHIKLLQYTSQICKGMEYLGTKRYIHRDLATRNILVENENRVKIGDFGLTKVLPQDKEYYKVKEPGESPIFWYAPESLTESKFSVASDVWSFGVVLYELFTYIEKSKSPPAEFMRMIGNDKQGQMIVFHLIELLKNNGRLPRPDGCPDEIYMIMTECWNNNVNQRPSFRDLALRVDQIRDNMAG
Sequence of FGFR3 (P22607 whole entry, looked up): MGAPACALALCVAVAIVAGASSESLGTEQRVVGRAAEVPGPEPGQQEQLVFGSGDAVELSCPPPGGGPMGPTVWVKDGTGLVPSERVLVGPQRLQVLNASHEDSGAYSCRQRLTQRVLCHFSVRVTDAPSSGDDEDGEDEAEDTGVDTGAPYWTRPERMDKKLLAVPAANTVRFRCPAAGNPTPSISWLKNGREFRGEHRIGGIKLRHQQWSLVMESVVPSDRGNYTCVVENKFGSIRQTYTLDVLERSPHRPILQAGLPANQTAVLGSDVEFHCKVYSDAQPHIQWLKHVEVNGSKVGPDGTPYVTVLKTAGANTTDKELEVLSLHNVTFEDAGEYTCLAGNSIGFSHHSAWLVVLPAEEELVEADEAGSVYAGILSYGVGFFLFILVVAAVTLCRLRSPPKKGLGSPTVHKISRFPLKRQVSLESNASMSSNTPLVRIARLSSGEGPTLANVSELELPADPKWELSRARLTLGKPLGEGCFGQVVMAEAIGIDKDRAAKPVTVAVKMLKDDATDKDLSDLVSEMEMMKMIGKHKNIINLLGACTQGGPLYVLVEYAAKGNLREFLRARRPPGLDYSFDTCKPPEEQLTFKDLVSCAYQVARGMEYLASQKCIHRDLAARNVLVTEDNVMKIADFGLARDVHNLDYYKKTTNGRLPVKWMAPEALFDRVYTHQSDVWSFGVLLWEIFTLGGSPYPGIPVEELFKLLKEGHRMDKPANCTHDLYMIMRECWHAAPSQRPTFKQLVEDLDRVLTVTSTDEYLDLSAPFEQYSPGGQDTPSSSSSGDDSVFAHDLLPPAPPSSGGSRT
Sequence of FGFR1 (P11362 whole entry, looked up): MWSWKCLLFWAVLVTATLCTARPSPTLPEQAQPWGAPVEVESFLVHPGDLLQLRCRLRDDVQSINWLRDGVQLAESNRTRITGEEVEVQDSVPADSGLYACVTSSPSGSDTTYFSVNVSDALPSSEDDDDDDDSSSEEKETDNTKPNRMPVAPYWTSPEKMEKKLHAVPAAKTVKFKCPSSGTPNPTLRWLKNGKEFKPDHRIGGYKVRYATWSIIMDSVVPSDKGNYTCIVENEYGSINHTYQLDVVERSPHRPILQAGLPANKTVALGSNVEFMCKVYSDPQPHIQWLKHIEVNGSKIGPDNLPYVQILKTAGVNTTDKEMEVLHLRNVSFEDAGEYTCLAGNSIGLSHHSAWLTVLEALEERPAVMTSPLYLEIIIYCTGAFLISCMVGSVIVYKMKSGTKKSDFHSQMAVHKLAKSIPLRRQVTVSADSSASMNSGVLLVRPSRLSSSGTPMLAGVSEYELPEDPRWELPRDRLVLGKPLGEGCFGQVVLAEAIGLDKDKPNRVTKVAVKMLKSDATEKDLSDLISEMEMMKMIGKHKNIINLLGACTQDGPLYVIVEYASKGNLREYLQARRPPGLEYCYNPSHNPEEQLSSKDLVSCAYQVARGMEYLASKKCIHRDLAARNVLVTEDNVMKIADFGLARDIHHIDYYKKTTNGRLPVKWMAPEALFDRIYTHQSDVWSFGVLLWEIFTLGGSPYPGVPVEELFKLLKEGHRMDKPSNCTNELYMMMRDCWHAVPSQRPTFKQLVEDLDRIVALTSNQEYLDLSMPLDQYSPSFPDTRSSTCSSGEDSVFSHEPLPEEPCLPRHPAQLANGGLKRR

Row | Sequence | phosphorylation enrichment [1] | phosphorylation enrichment [2] | phosphorylation enrichment [3] | phosphorylation enrichment [4] | phosphorylation enrichment [5] | phosphorylation enrichment [6] | phosphorylation enrichment [7] | phosphorylation enrichment [8] | phosphorylation enrichment [9] | phosphorylation enrichment [10] | phosphorylation enrichment [11] | phosphorylation enrichment [12] | phosphorylation enrichment [13] | SH2 binding enrichment [14] | SH2 binding enrichment [15] | SH2 binding enrichment [16]
1 | LFSLGYHQSLW [GANAB_Y396_R400L] | 0.7 | 0.786 | 0.42 | 0.827 | 0.627 | 0.475 | 0.702 | 0.474 | 0.535 | 0.51 | 0.475 | 0.986 | 0.666 | 0.98 | 0.61 | 0.59
2 | PADQAYSWYQH [NDST1_Y711_R709Q] | 0.765 | 3.15 | 1.58 | 1.55 | 0.755 | 1.17 | 0.674 | 20.6 | 3.75 | 5.18 | 1.37 | 1.57 | 0.6 | 0.802 | 0.63 | 0.488
3 | SFSGEYGGGGG [ZG16_Y30_YF] | 0.47 | 0.35 | 0.423 | 0.62 | 0.392 | 0.348 | 0.467 | 0.413 | 0.306 | 0.496 | 0.397 | 0.571 | 0.505 | 0.663 | 0.471 | 0.543
4 | VRVQLYDPDFM [CYP4A22_Y100_Y104F] | 1.07 | 0.683 | 0.579 | 1.06 | 0.717 | 0.419 | 0.631 | 0.579 | 1.08 | 0.45 | 0.561 | 1.17 | 0.734 | 0.972 | 0.536 | 0.67
5 | YFRDGHMPRQY [GSS_Y270_Y270H] | 1.03 | 0.583 | 0.401 | 0.454 | 0.458 | 0.443 | 0.462 | 0.436 | 0.445 | 0.531 | 0.45 | 0.584 | 0.541 | 1.04 | 0.51 | 0.821
6 | AVIADYMFWLG [SPATA16_Y290_M286V] | 3.42 | 10.7 | 1.17 | 2.25 | 6.08 | 0.852 | 12.4 | 2 | 2.51 | 13.1 | 1.34 | 1.3 | 1.17 | 1.42 | 1 | 1.4
7 | DRQASYLDKVR [KRT16_Y131_L128Q] | 0.609 | 0.424 | 0.385 | 0.536 | 0.39 | 0.418 | 0.419 | 0.324 | 0.388 | 0.39 | 0.399 | 0.662 | 0.494 | 0.846 | 0.465 | 0.614
8 | MDDDQYALLTT [EFCAB6_Y675] | 0.996 | 1.18 | 0.64 | 1.39 | 0.677 | 0.64 | 0.785 | 0.736 | 0.632 | 1.1 | 0.956 | 1.26 | 0.732 | 0.841 | 0.695 | 0.544
9 | LSRDVYEEDSY [RET_Y900] | 1.55 | 0.968 | 0.719 | 1.39 | 0.535 | 0.503 | 0.685 | 0.416 | 0.699 | 0.656 | 0.771 | 1.39 | 0.906 | 0.652 | 0.978 | 0.726
10 | SVVVSYEPPEV [TP53_Y220_P219S] | 0.808 | 0.594 | 0.432 | 1.23 | 0.519 | 0.587 | 0.579 | 0.515 | 0.434 | 0.475 | 0.632 | 0.918 | 0.749 | 0.82 | 0.707 | 0.914
11 | PNQRRYVFFFS [PTEN_Y174_S170N_YF] | 1.22 | 1.25 | 0.677 | 1.89 | 0.61 | 0.524 | 0.639 | 0.76 | 0.491 | 0.731 | 0.77 | 1.65 | 1.22 | 1.14 | 1.23 | 1.88
12 | HEGKIYEFNQV [ZNF665_Y162_YF] | 0.468 | 0.929 | 4.38 | 0.796 | 0.883 | 6.98 | 1.17 | 22.6 | 4.13 | 0.665 | 1.64 | 0.975 | 1.6 | 0.82 | 0.371 | 0.633
13 | EKMWTYMPSAE [GRIA4_Y695_R697P] | 0.652 | 0.623 | 0.329 | 0.768 | 0.504 | 0.377 | 0.474 | 0.396 | 0.363 | 0.448 | 0.509 | 0.841 | 0.538 | 0.92 | 0.524 | 0.444
14 | KILGRYYETSS [PAX2_Y72_G76S] | 0.595 | 0.541 | 0.51 | 0.568 | 0.428 | 0.424 | 0.502 | 0.447 | 0.453 | 0.435 | 0.344 | 0.65 | 0.613 | 0.89 | 1.62 | 0.726
15 | VEEDTYTMPST [PTK2_Y407_D402V] | 1.12 | 0.984 | 4.81 | 4.74 | 0.879 | 6.55 | 0.675 | 0.741 | 1.6 | 0.697 | 3.5 | 1.31 | 1.18 | 0.64 | 0.424 | 0.648
16 | NQSVRYDSSLK [ABCC8_Y1353_L1349Q] | 0.556 | 0.456 | 0.433 | 0.523 | 0.484 | 0.461 | 0.491 | 0.57 | 0.423 | 0.341 | 0.429 | 0.601 | 0.487 | 0.675 | 0.404 | 0.609
17 | VEGIGYDFIPT [CBS_Y308] | 0.827 | 0.685 | 0.539 | 1.04 | 0.579 | 0.594 | 0.576 | 0.43 | 0.501 | 0.588 | 0.785 | 1.12 | 0.723 | 0.79 | 7.71 | 1.02

Row | Sequence | phosphorylation enrichment [1] | phosphorylation enrichment [2] | phosphorylation enrichment [3] | phosphorylation enrichment [4] | phosphorylation enrichment [5] | phosphorylation enrichment [6] | phosphorylation enrichment [7] | phosphorylation enrichment [8] | phosphorylation enrichment [9] | phosphorylation enrichment [10] | phosphorylation enrichment [11] | phosphorylation enrichment [12] | phosphorylation enrichment [13] | SH2 binding enrichment [14] | SH2 binding enrichment [15] | SH2 binding enrichment [16]
18 | KVNKIYFPDFI [LIG3_Y767_YF] | 0.712 | 1.26 | 0.478 | 0.799 | 0.427 | 0.455 | 0.399 | 0.4 | 0.473 | 1.24 | 0.543 | 0.855 | 0.566 | 0.946 | 0.692 | 0.844
19 | ALTRSYIREKV [CYP2C8_Y243] | 0.445 | 0.367 | 0.419 | 0.524 | 0.388 | 0.422 | 0.316 | 0.43 | 0.369 | 0.423 | 0.4 | 0.596 | 0.417 | 0.655 | 0.433 | 0.576
20 | GTFVIYVRFSG [FLNB_Y1687_G1691S_YF] | 1.14 | 0.569 | 0.539 | 1.17 | 0.572 | 0.426 | 0.468 | 0.443 | 0.472 | 0.406 | 0.454 | 1.4 | 0.979 | 1.15 | 0.442 | 0.812
21 | FRPPFYHRNCM [HGD_Y334_YF] | 0.761 | 0.605 | 0.402 | 0.921 | 0.417 | 0.472 | 0.489 | 0.489 | 0.426 | 0.426 | 0.48 | 1.04 | 0.649 | 0.935 | 1 | 0.913
22 | RAMRRYLERGE [ERBB3_Y680] | 0.607 | 0.679 | 0.455 | 0.722 | 0.719 | 0.608 | 0.563 | 0.686 | 0.61 | 0.636 | 0.711 | 0.576 | 0.615 | 0.716 | 0.411 | 0.554
23 | EVVGRYSGHNA [MLH1_Y183_V185G] | 0.397 | 0.48 | 0.34 | 0.464 | 0.434 | 0.414 | 0.4 | 0.397 | 0.426 | 0.405 | 0.403 | 0.514 | 0.368 | 0.768 | 0.448 | 0.629
24 | QEEPEYWDQET [HLA-A_Y83_G80E] | 2 | 1.43 | 0.823 | 2.08 | 1.08 | 0.943 | 0.793 | 0.902 | 0.384 | 0.897 | 0.699 | 1.95 | 0.907 | 0.798 | 0.491 | 0.476
25 | ARLEFYENEKK [IRS1_Y47_YF] | 0.887 | 0.604 | 0.411 | 1.1 | 0.623 | 0.439 | 0.597 | 0.406 | 0.462 | 0.58 | 0.451 | 0.995 | 0.492 | 1.18 | 2.68 | 1.19
26 | FYLGAYDRFLP [SLC22A5_Y486_V481F] | 1.11 | 0.831 | 3.62 | 1.37 | 0.938 | 2.4 | 2.06 | 1.22 | 4.1 | 0.712 | 3.38 | 1.28 | 0.829 | 1.18 | 1.16 | 1.37
27 | AEVDTYCRHNF [HLA-DRB1_Y107_A103E_YF] | 0.719 | 0.61 | 0.509 | 0.988 | 0.594 | 0.567 | 0.556 | 0.813 | 0.473 | 0.532 | 0.6 | 0.935 | 0.618 | 0.826 | 0.454 | 0.696
28 | SETSRYLSDLF [KCNJ3_Y67] | 1.17 | 0.627 | 0.549 | 0.963 | 0.726 | 0.504 | 0.562 | 0.555 | 0.485 | 0.544 | 0.515 | 1.21 | 0.844 | 0.942 | 0.543 | 0.989
29 | FASTGYGIAIQ [GRIN2B_Y762] | 0.605 | 0.55 | 0.408 | 0.655 | 0.575 | 0.499 | 0.456 | 0.375 | 0.408 | 0.557 | 0.484 | 0.92 | 0.739 | 0.721 | 0.452 | 0.647
30 | TVLWLYTGTRP [UGT1A1_Y337_R336L] | 1.06 | 0.742 | 0.255 | 1.17 | 0.548 | 0.68 | 0.487 | 0.527 | 0.318 | 0.369 | 0.466 | 1.27 | 0.532 | 1.28 | 1.06 | 1.3
31 | PGLSSYGVPAS [FLNB_Y1530] | 0.599 | 0.526 | 0.474 | 0.677 | 0.543 | 0.661 | 0.435 | 0.408 | 0.497 | 0.56 | 0.482 | 0.738 | 0.913 | 0.898 | 0.545 | 0.658
32 | FDGKDYIALKE [HLA-A_Y147_N151K_YF] | 0.659 | 0.44 | 0.489 | 0.952 | 0.407 | 0.376 | 0.43 | 0.379 | 0.406 | 0.398 | 0.363 | 0.672 | 0.536 | 0.919 | 0.499 | 0.677
33 | DKEKWYPLGTS [PIK3C2G_Y1438_N1442T] | 0.765 | 0.642 | 0.486 | 0.821 | 0.544 | 0.505 | 0.496 | 0.55 | 0.458 | 0.409 | 0.44 | 0.931 | 0.591 | 0.852 | 0.403 | 0.513
